From article PMC3061051 (Nucleic Acids Research, 2010)

Tests used:
Assay in all cases: EMSA
[1] = target: T1, Δ(F561-T562-T566)-RECQ1T1 (human, UniProt P46063 49-616, del561-562;del566-566)
T1 sequence: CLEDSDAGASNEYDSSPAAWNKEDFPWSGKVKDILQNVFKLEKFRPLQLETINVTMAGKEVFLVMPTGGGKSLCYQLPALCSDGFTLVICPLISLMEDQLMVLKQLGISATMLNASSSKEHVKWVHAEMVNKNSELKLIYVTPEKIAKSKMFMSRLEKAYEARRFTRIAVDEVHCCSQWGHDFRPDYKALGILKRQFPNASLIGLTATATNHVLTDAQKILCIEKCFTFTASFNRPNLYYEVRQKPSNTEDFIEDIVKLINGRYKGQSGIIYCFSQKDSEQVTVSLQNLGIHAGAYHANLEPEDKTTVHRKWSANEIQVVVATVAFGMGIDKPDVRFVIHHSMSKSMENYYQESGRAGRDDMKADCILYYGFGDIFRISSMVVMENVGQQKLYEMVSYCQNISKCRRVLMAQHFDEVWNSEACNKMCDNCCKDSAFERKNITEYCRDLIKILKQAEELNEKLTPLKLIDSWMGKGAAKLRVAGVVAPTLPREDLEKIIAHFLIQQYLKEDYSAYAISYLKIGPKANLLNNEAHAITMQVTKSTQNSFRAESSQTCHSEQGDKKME

[2] = target: W227A-F231A-RECQ1T1 (human, UniProt P46063 49-616, W227A;F231A)
[3] = target: RECQ1T1 (RECQ1 49-616) (human, UniProt P46063 49-616)
[4] = target: T2, Y559A-S560A-F561A-RECQ1T1 (human, UniProt P46063 49-616, Y559A;S560A;F561A)
T2 sequence: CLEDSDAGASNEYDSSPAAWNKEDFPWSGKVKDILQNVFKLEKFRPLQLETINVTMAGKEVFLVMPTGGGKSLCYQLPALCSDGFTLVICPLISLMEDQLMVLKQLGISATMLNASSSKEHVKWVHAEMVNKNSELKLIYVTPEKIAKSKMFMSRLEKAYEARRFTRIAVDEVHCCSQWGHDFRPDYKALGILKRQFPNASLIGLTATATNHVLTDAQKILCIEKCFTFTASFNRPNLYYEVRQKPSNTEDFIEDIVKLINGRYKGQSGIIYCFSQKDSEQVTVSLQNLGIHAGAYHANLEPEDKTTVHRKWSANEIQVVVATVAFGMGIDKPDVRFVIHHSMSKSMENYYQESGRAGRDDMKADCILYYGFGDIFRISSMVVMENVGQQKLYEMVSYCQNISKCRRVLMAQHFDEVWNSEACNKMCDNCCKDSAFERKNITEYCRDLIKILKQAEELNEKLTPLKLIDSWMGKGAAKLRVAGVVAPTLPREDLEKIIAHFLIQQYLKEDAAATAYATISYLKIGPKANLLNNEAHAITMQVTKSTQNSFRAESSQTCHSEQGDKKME

[5] = target: T3, Y564A-RECQ1T1 (human, UniProt P46063 49-616, Y564A)
T3 sequence: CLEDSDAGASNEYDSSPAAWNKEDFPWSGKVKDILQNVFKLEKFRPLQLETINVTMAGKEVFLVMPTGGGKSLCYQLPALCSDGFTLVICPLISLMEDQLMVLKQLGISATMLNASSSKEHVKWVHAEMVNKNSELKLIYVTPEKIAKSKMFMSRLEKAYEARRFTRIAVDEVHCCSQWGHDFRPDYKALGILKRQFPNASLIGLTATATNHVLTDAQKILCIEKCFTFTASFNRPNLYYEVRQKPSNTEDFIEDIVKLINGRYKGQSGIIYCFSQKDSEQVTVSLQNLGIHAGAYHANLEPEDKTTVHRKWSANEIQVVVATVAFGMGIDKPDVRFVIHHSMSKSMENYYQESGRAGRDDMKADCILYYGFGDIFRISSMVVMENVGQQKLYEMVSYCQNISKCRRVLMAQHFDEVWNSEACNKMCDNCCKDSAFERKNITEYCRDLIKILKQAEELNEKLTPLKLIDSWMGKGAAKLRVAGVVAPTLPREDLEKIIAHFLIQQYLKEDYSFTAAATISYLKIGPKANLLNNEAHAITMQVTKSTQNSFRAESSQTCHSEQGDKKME

Measured: binding result

B1: X12 Holliday junction (structured_DNA)
DNA 1: GACGCTGCCGAATTCTGGCTTGCTAGGACATCTTTGCCCACGTTGACCCG
DNA 2: CGGGTCAACGTGGGCAAAGATGTCCTAGCAATGTAATCGTCTATGACGTC
DNA 3: GACGTCATAGACGATTACATTGCTAGGACATGCTGTCTAGAGACTATCGC
DNA 4: GCGATAGTCTCTAGACAGCATGTCCTAGCAAGCCAGAATTCGGCAGCGTC
no binding: all assays above
